Measured values: doi:10.1101/2025.02.16.638521 (bioRxiv, 2025)

Key:
[1] = biological target: full-length Grb2 (Grb2^FL) (human, UniProt P62993 1-217); test: SEC-MALS
[2] = biological target: T1, Themis^1-563 (truncated Themis, residues 1-563) (human, UniProt Q8N1K5); test: cryo-EM structure
[3] = biological target: tagless Themis^1-563 (co-expressed with His-tagged Grb2^FL) (human, UniProt Q8N1K5); test: cryo-EM structure
[4] = biological target: T1, Themis^1-563 (truncated Themis, …); test: BLI
[5] = biological target: Themis^1-563-Grb2^FL complex (co-expressed, pre-formed) (human, UniProt Q8N1K5;P62993); test: SEC-MALS
Themis^1-563-Grb2^FL complex (co-expressed, pre-formed), sequence (P62993 whole entry, one chain of several): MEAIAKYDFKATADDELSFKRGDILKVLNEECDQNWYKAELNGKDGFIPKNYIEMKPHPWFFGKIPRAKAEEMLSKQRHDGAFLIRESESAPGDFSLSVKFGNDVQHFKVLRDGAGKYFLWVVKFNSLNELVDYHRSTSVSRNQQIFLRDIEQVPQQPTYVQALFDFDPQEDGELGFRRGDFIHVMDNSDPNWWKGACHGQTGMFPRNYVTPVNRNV

full-length Grb2 (Grb2^FL), sequence (P62993 whole entry, the tested form may be a part): as the sequence (P62993 whole entry, one chain of several) above

B1: tagless Themis^1-563 (co-expressed with His-tagged Grb2^FL) (domain or fragment)
chain: MALSLEEFVHSLDLRTLPRVLEIQAGIYLEGSIYEMFGNECCFSTGEVIKITGLKVKKIIAEICEQIEGCESLQPFELPMNFPGLFKIVADKTPYLTMEEITRTIHIGPSRLGHPCFYHQKDIKLENLIIKQGEQIMLNSVEEIDGEIMVSCAVARNHQTHSFNLPLSQEGEFYECEDERIYTLKEIVEWKIPKNRTRTVNLTDFSNKWDSTNPFPKDFYGTLILKPVYEIQGVMKFRKDIIRILPSLDVEVKDITDSYDANWFLQLLSTEDLFEMTSKEFPIVTEVIEAPEGNHLPQSILQPGKTIVIHKKYQASRILASEIRSNFPKRHFLIPTSYKGKFKRRPREFPTAYDLEIAKSEKEPLHVVATKAFHSPHDKLSSVSVGDQFLVHQSETTEVLCEGIKKVVNVLACEKILKKSYEAALLPLYMEGGFVEVIHDKKQYPISELCKQFRLPFNVKVSVRDLSIEEDVLAATPGLQLEEDITDSYLLISDFANPTECWEIPVGRLNMTVQLVSNFSRDAEPFLVRTLVEEITEEQYYMMRRYESSASHPPPRPPKHPSV
For B1, the “stoichiometry N” value [1] was 1.

B2: PMb256 (Pro-Macrobody of Nb256) (VHH)
VHH: QVQLQESGGGLVQAGGSLRLSCAASGRTFSTYAMGWFRQAPGKEREFVAAILWSDGSTYYADSVKGRFTISRDNAKNTVYLQMNSLKPEDTAVYYCAADYTGVRYDYWGQGTQVTVPP
B2: binds [2]; binds [3].

B3: Nb256 (Themis-specific single domain VHH camelid antibody fragment) (VHH)
VHH: QVQLQESGGGLVQAGGSLRLSCAASGRTFSTYAMGWFRQAPGKEREFVAAILWSDGSTYYADSVKGRFTISRDNAKNTVYLQMNSLKPEDTAVYYCAADYTGVRYDYWGQGTQVTVPP
B3: binds [4]; binds [5].
